Earlier results as cited in publication PMC5729051.

Target: amyloid-beta oligomer (Homo sapiens) (UniProt P05067)

Cellular Prion Protein (PrPC) (from UniProt P04156)
Kd: 0.4 nM
